Patent US20130171155A1

Columns and labels:
Assay in all cases: cell-based or functional assay
[1] = molecular target: baboon factor D (in baboon serum or plasma) (baboon)
[2] = molecular target: dog factor D (in dog serum) (dog); details: scale: times less effective than on human factor D
[3] = molecular target: human factor D purified from human serum (human) (UniProt P00746)
UniProt P00746, sequence (P00746 26-253 N180D): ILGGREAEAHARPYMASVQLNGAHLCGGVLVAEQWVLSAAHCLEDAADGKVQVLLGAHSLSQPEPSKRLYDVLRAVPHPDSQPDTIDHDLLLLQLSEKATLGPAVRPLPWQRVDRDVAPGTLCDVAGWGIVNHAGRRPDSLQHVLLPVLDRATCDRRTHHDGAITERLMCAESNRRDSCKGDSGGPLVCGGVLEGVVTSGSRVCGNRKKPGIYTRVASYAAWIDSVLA

MAb 166-32 (antibody)
inhibition of alternative complement hemolytic activity of baboon plasma, 18 hours after CPB [1]: 79.3% | neutralization of dog factor D in hemolytic assays [2]: > 10 | alternative complement activity (hemolytic assay, unsensitized rabbit RBCs) in paired extracorporeal circuits [3]: 18 µg/mL | alternative pathway hemolytic activity of plasma from extracorporeal circuits (human whole blood) (molar ratio (MAb:factor D)) [3]: 1.5 | factor D dependent hemolysis of unsensitized rabbit RBCs (factor D depleted human serum with added factor D) [3]: 0.3 µg/mL
